Reference: the domain aggregation screens of Martell et al. (2025)

Test: soluble fraction after stress (log2 fold change); higher = more stays soluble; pooled small domains, quantitative proteomics
Conditions: stress: 50 degC
Procedure, shortened: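 Each library was heated to 50°C as a stress step. The libraries, made up of small protein domains, were pooled and analysed at high throughput by quantitative proteomics. The reported value is the base-two logarithm of the fold change in each protein's soluble amount after stress, taken as a measure of aggregation propensity. The higher the value, the more protein stays in solution.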

Sequence | soluble fraction (log2)
HMAPGVHVEALLPYTAGSLVSQIREYGNVDAVEYRDTGILLQADVDERLAAQIMDQALEDPV | 0.0408
HMAPLADQIVDLLKEHDGFLPLHDNSSPEDIRATVGTSKKAFKQAIGGLFREKRIVIGPTGIRLIS | -0.378
HMAPLATIHVSSLSQKPFYLYGTFEDRRGNHLFFLEQIMGENKSIPVAMPSSAINPKIHASLTPPKG | -0.32
HMAPLQDENGDLTFSYNGKTYTVNVNSEEDRNSFAEDFNKENGKKFSWFKERAGLQHYVFYDTEM | -0.19
HMAPLVTLEADGNGAVKLSNLAGHSIREVAGALGGAGLSLIPVGSGTSWKQNPAPGTVLHSGDTVTVYF | 0.126
HMAPPIQQQVESLMNSFAKIGVTVPMLESRLQHAMSAVTANELVMLRKIGASIRDGFATVAEQFPA | 0.0539
HMAPPPPEGYIHRWIRESVMGFDDKKNLSARIREGFELVRAEEYPDYEAPTVMDGKHAGVIANGGLLLARF | -0.148
HMAPQQARAAKTRVKLLDAAATVVRRDGIQAMTLARVAEEAGVSKGGLLHHFGSKEELVTGMLEQ | -0.152
HMAPRASDALTERELDVLRVVADGASVAEAAEMLVVSRETVKKHLGNIYAKLGVHSKMQAVALLREEGV | -0.147
HMAPRKNIRLLRAAQDKAAAEGDHETVDAIRGQIAALIETLPVQYREEYLLQEKGRENGLKLAIENAAK | 0.423
HMAPSLQISLKQAIITAQQQHPGSKALNADFDGARGTPRYVIETLLPTGELRELTIDAQSGQVMEDHPDR | 0.119
HMAPSPEGAAILRESVESVARDQVDRVALTMTARGYTTAEIAAALMVDRSTISRRLYAMRDRYHAQQDNAQ | -0.37
HMAPSVNEVAWAQKIIDAHAEAAAAGKGLVVVDGKLIENLHVEEAKQLLSLSDAIAKNDASNG | 0.16
HMAPTGTDRQTPHTRDELYLVLSGTGTFVNGDARHPFGPGDALFVPAGAEHRFEDFSDDFRTWVVFYGAEG | -0.162
HMAPVVAILTRQLPLPQAQQLAGQTALVRVVKGGPGNEAELEFAGQNIQVKLPPGRQLTAGEMVTVAFALS | 0.0876
HMAQASEPMLALIRLKWWEEQINSPVKGDSLPLLSQLNSHISAGYLSRSQVTSLIQRWQDYA | -0.787
HMAQFNELLFELRQDRKMTQEDLAKVLFVTSGTISNYENGVHLPDIEKLISLADFFGVTTDYLLG | -0.104
HMAQLKYEQIKSYLQAEAVKPESATRMPTVRELMRRFNVSLVTVNRALSELEHAKVIVRRQGAGIVAAQ | -0.703
HMAQLPADMSRVKSADVSDAQLREFVQKAQASGQTETQLFREFSRRGMPTNEINILRSRMVGLQNN | 0.0388
HMAQLPPTATARATSDVSGLTASAALRTLLEQGFVPQIHGSGKVSRQHPPAGTLLEPGSTIQLFLEPS | 0.354
HMAQLSDMLTYLRKRKGLSQQELANTLKISRSAIGMYETGKREPDLETLEVFADFYNVDMNTLTGKA | -0.143
HMAQNILPGQKNAIKSLATSAGFSQQELDSYLSQNYGKTLNNLSQKEGASLISGLQDGSIKKP | 0.352
HMAQPIPSGSDIREAREAAGMNLRDFARMVGGGAIGTWSHYETGKPIRVKSISPEVWQRVRDFILQHGK | -0.417
HMAQRAADEARTHEILGLLRQARAALDHGGTARAARLRASIAEKLPAAPALPAWFARQLEQVDSQLAELQD | -0.432
HMAQRFDLGDKLNPQSSEFEYLGTSSRTGVSTYRYKNVPTQLFFGRQIGDIVVGVRRGMITLTIYNL | -0.0451
HMAQSTALVNLAQAEINKRGLTQTEVQARLSEEGINVNSISPAEYPKYQKQILSILDQMQKEKQLSKEV | 0.412
HMAQVDAVQQVLQAFPALRSGQSQHLSQVVAALRQRGILTVGTKTTAWFAQWASVFQLLPLQVPNRIRYQS | -0.066
HMARGRETILLVEDEPAVRGLVHATLRLHGYTVLEARHGIEALLTSTKFVGPIHLLLTDVVMPQMS | 0.182

Sequence | soluble fraction (log2)
HMARHIHFEVHVQQAGRWSIHAQFGAGQREKAIEEAKKIEKTPGFDSVKVVKETYDSDLGNHQDTTIYRGP | -0.506
HMARKTIFHSLLGELEQRIGRLPAGTILPAEQALADEYGVSKPTLRRALAELAEHGLITKENGIGSVVI | -0.45
HMARLAGVDLPREKRIEIGLTYIYGIGLARSQEILKKAGINPDIRVKDLTDEQEQAIRNAMDGYIVEGDL | -0.148
HMARLQEVVVRVPVEDGQTLAAIYREAEVIERADEGTGVLLTVRIPAPLLGRLRRLEGVHVQP | -0.125
HMARRLELEDIPVDEVLFTASRNLVDAIEVMDPSRQAPMIQPWLKQALEWAVGALGFSKEDAVATLTSD | -0.0273
HMASAAHYEGVKTEGESDNDVITRVLTATGVTAEKDDIFVVKSLIADGKYSYTAYVYDGSVWAAMD | -0.0797
HMASALDVALNDFAEMRKKMRKPLTDRALALTLSELEKLAPGNDEKKIAILNQSIQRGWQGVFPLK | -0.162
HMASDEVPGAGFKWREDVLLRVMEANGIDKSNRDDFVRHAVNFDDDDNNYLKKAEIEAAAAAWVESQSPA | -0.291
HMASDLPTVTIMGKTFYTYVAKKGESFFGIANRFGWDPELLVKTNRELETPLDKGALIYYPVPKKPK | -0.199
HMASIATLTVKALGGASDVVIRDKDGRIIWADRLPAGQSHRVFGHAPFNVAASHASRVQLSLLGKDVGRV | -0.719
HMASISDRIRLLRAESHMTQEEFGRIFGISKPTVSFYEHGKSVPNDQIKTAIARYFGVSVDYLLGVTD | -1.89
HMASKTGTITATSLNVRSGAATTYSILGTLSNGKTVTIYEESNGWYKINYNGGYGWVSKTYVSTG | -0.435
HMASLASVAYETLRQALDNFQYVPGDRFSESEVGQQLGMSRTPVREALVRLQREGYISVLPKMGWVVNQ | -1.64
HMASMHDGVAARLRAMVFERELAPGEFIDERRLAQQWQISRTPLREALKVLAAEGLVELVPRRGARVV | -0.298
HMASPKEALWRSLAEEPDTWWDNRERKSQPGANPRSPDFKHKESGEALWIESRDTPTWVLETL | 0.1
HMASQEESVATYIQDYYRNPKTGESMVSDDMVEEFYKTHPEWEDQADGSKEGMEAVLDNFNEFFEINYG | 0.0827
HMASSRPLAEGDFVRLRAGGATGRIESIKGQKATVQMGGLKVHAPLRDLLPVAEPIKQVSTASNT | 0.0407
HMASVAKHIRRLRTERHMTQGDLAEKLFVTRQTVSAWETGKAQPDLETLERIAVVLGVEVTELIYGAP | -0.0295
HMASVVEQVQVSNDISLFRQQNSPYWQARFKVAGKWYTRTTKRTEQTQAAFRAAELRSEVQTKISQGIPLR | -0.866
HMATESYYVLKADVPAKTLVTQEMVEEIKVSKGGAPVNSIKIDNIKEKGVYTSIPLLKGDVLSASNTG | 0.00692
HMATKVSSGATVRDVADLLGLSSAELIKKLMMMGEMATLTQTLTDESIKSIADEYDRKIEIVSAAE | 0.0948
HMATNVLEISTRNKNILIQDSLNLVESFYSKSDNQYWYKLVFKTKDDLNKFLQEVSEDENTITYKTSSI | 0.217
HMATPEINNLGRLRNAINQSNVNWHQIIKRLQNEYPNNWRQILIAIDRHDLLFRYDVENYIKYG | -1.56
HMATPIAGTKYTLNNTPVYGTEKGPSIGKRSGIYYTWDATVRNGRIRMTNSPARVGVPWQVSFWVEVNKL | -0.533
HMATPRLAIVPQSAAGRRLDAVLAELFPEYSRSRLSAWIKTGDVMVDGAAPRGRDPVRGGEEITLTAVQ | -0.033
HMATPTEHQLQAQARAVVEKAERLLDRASADDREDIINLIEKITDALAAEDFTAVKAPLAELSDILFYLE | -0.418
HMATPTMEDYIEVIYSLVKTKGYARSADIAEKLEVYPSTVTKMLKKLDAEGYIVYEKYRGIALTDIGKKMG | -1.73
